Where two headings read alike, the source gives them in different places. Each block holds one binder with its values, some of them ahead of it.
How the values were obtained:
[1] = molecular target: T1, recombinant human EGFR extracellular domain (human, UniProt P00533 25-645); test: ELISA, coated EGFR ECD
T1 construct: extracellular domain

[2] = molecular target: T2, recombinant human HER3 extracellular domain (human, UniProt P21860 20-643); test: ELISA, coated HER3 ECD
T2 construct: extracellular domain

[3] = molecular target: T3, recombinant human HER4 extracellular domain (human, UniProt Q15303 26-651); test: ELISA, coated HER4 ECD
T3 construct: extracellular domain
T3 sequence (looked up): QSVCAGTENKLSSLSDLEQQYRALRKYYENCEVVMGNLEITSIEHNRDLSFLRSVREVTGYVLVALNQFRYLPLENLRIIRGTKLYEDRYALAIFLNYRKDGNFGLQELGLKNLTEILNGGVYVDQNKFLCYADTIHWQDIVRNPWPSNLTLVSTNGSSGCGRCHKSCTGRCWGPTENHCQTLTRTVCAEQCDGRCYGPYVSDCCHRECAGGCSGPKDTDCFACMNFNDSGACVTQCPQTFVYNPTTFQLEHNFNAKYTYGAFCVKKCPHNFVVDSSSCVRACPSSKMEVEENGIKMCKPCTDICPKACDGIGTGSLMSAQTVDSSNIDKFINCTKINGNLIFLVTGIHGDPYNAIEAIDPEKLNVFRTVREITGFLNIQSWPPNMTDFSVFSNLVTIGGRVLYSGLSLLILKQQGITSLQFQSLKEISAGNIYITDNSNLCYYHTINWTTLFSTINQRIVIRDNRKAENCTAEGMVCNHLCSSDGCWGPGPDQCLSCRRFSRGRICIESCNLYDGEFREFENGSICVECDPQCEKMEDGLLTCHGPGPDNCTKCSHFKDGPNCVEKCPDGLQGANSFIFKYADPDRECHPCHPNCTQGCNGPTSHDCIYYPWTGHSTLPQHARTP

[4] = molecular target: T4, recombinant human HER2 extracellular domain protein (human, UniProt P04626 23-652); test: BLI, Protein A capture
T4 construct: range 23-652; Range is printed for the immunogen/panning protein; also called ErbB2; recombinant HER2 protein

FcγRIIIa (176F) = FcγRIIIa (176F) (UniProt P08637 17-208); test: BLI (ForteBio)
FcγRI = molecular target: T5, FcγRI (UniProt P12314 16-288, limits assumed); test: BLI (ForteBio)
T5 construct: also called CD64

FcγRIIa (167H) = molecular target: T6, FcγRIIa (167H) (UniProt P12318 36-218, limits assumed); test: BLI (ForteBio)
T6 sequence (looked up): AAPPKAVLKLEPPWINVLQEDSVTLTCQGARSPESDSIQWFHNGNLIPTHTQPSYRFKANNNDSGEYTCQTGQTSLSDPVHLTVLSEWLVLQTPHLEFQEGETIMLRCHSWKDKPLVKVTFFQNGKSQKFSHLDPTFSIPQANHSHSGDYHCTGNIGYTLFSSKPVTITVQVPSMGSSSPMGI

FcγRIIIa (176V) = FcγRIIIa (176V) (UniProt P08637 17-208, limits assumed); test: BLI (ForteBio)
[5] = molecular target: T4, recombinant human HER2 extracellular …; test: BLI, Protein A capture; remark: listed apart in the source
[6] = molecular target: T7, human HER2 expressed on tumor cells (human, UniProt P04626 23-1255); test: flow cytometry, BT474 cells, 10 µg/mL
T7 construct: whole, on cells; Cell line is named in each row's assay

T5 sequence (P12314 16-288 limits assumed): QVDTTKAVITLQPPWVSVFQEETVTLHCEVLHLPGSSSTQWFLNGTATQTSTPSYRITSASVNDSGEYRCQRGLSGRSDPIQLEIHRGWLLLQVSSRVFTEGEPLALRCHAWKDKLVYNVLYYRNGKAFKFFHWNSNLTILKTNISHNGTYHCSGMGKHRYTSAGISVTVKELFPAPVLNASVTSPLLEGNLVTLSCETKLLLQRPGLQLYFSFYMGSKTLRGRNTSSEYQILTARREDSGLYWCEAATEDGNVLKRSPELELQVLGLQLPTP
Sequence of FcγRIIIa (176V) (P08637 17-208 F176V limits assumed): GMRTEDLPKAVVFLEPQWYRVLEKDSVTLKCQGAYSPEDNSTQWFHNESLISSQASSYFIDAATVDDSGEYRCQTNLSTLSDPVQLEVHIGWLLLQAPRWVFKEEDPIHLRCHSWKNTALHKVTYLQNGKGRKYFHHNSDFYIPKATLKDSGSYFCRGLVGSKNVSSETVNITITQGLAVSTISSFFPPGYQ
Sequence of FcγRIIIa (176F) (P08637 17-208 limits assumed): as the sequence (P08637 17-208 F176V limits assumed) above, with V160F counted along it

binding result [1]: no binding
binding result [2]: no binding
binding result [3]: no binding
Kd [4]: 4.28 nM
koff [4]: 0.00166 s⁻¹
kon [4]: 388000 M⁻¹ s⁻¹
B1: mAb2117 (antibody, V domains shown)
VH: EVKIEESGGGLVKPGGSLKLSCAASGFTYSSYGMSWVRQTPEKRLEWVASISGGGSYTKYPDSVKGRFTISRDNAKNHLYLQMSSLRSEDTALYYCARDYAGFFDVWGAGTTVTVSS
VL: DVVLTQTPLSLPVSLGDQASISCRSSQSLVHSNGNTYLHWYLQKPGQSPKLLIYKVSNRFSGVPDRFSGSGSGTDFTLKISRVEAEDLGVYFCSQSTHVPYTFGGGTKLEIK
notes: also called anti-HER2 chimeric antibody mAb2117

binding result [1]: no binding
binding result [2]: no binding
binding result [3]: no binding
Kd [4]: 3.44 nM
koff [4]: 0.000949 s⁻¹
kon [4]: 276000 M⁻¹ s⁻¹
B2: mAb2128 (antibody, V domains shown)
VH: EVQLQQSGPELVKPGASVKIPCKASGYTFTDYNMDWVKQSHGKSLEWIGDINPNNGGTIYNQKFKGKATLTVDKSSSTAYMELRSLTSEDTAVYYCARYGSGYGGFAYWGQGTLVTVSS
VL: DIVLTQSPTTMAASPGEKITITCSASSSISSNYLHWYQQKPGFSPKLLIYRTSNLASGVPARFSGSGSGTSYSLTIGTMEAEDVATYYCQQGSSIPRTFGGGTKLEIK
notes: Chimeric human IgG1/Cκ

binding result (FcγRIIIa (176F)): no binding
binding result (FcγRI): no binding
binding result (FcγRIIa (167H)): no binding
binding result (FcγRIIIa (176V)): no binding
binding result [1]: no binding
binding result [2]: no binding
binding result [3]: no binding
B3: 04BS-1123-ST06 (bispecific antibody)
heavy: QVQLVESGGGLVQPGGSLRLSCAASGFTYSSYGMSWVRQAPGKGLEWVASISGGGSYTKYVDKVKGRFTISRDNSKNTLYLQMNSLRAEDTAVYYCARDYVGFFDVWGQGTLVTVSSGGGGSQVQLVQSGSELKKPGASVKVSCKASGYTFTDYSMHWVRQAPGQGLEWMGWINTGTGEPTYADDFKGRFTISRDTSKSTAYLQISSLKAEDTAVYYCVRVGRYDYAMDYWGQGTTVTVSSASTKGPSVFPLAPSSKSTSGGTAALGCLVKDYFPEPVTVSWNSGALTSGVHTFPAVLQSSGLYSLSSVVTVPSSSLGTQTYICNVNHKPSNTKVDKRVEPKSCDKTHTCPPCPAPEFEGGPSVFLFPPKPKDTLMISRTPEVTCVVVDVSHEDPEVKFNWYVDGVEVHNAKTKPREEQYNSTYRVVSVLTVLHQDWLNGKEYKCKVSNKALPASIEKTISKAKGQPREPQVYTLPPSRDELTKNQVSLTCLVKGFYPSDIAVEWESNGQPENNYKTTPPVLDSDGSFFLYSKLTVDKSRWQQGNVFSCSVMHEALHNHYTQKSLSLSPGK
light: DIQMTQSPSSLSASVGDRVTITCRSSQSLVHSNRNTYLHWYQQKPGKAPKLLIYKVSNRFSGVPSRFSGSGSGTDFTLTISSLQPEDFATYFCSQSTHVPYTFGQGTKVEIKGGGGSGGGGSGGGGSDIQMTQSPSSLSASVGDRVTITCRASQDVYTAVAWYQQKPGKAPKLLINLASSRPTGVPSRFSGSGSGTDFTLTISSLQPEDFATYYCQQYYSTPPTFGGGTKVEIKRTVAAPSVFIFPPSDEQLKSGTASVVCLLNNFYPREAKVQWKVDNALQSGNSQESVTEQDSKDSTYSLSSTLTLSKADYEKHKVYACEVTHQGLSSPVTKSFNRGEC
notes: also called anti-HER2 biparatopic antibody 04BS-1123-ST06

binding result [1]: no binding
binding result [2]: no binding
binding result [3]: no binding
Kd [4]: 1.44 nM
koff [4]: 9.67e-05 s⁻¹
kon [4]: 67300 M⁻¹ s⁻¹
Kd [5]: 5.2 nM
koff [5]: 0.000502 s⁻¹
kon [5]: 96600 M⁻¹ s⁻¹
B4: mAb2126 (antibody, human IgG1, V domains shown)
VH: QIQLAQSGPELKKPGETVKISCKASGYTFTDYSMHWVKQAPGKYLKWMGWINTETGEPTYADDFKGRFAFSLETSANTAYLQINNLKNEDTATYFCVRVGRYDYAMDYWGQGTSVTVSS
VL: DIVMTQSHKFMSTSVGDRVSITCKASQDVYTAVAWYQQKPGQSPKLLINSASYRYTGVPDRFTGSGSGTDFTFTISSVQAEDLAVYYCQQHYSTPPTFGGGTKLEIK
notes: also called anti-HER2 chimeric antibody mAb2126

binding result [6]: binds
B5: Hu2117-HK201 (Fc fusion)
scFv: EVQLVESGGGLVQPGGSLRLSCAASGFTYSSYGMSWVRQAPGKGLEWVASISGGGNYAKYVDSVKGRFTISRDNSKNTLYLQMNSLRAEDTAVYYCARDYAGFFDVWGQGTLVTVSSGGGGSGGGGSGGGGSDIQMTQSPSSLSASVGDRVTITCRSSQSLVHSNRNTYLHWYQQKPGKAPKLLIYKVSNRFSGVPSRFSGSGSGTDFTLTISSLQPEDFATYFCSQSTHVPYTFGQGTKVEIK
notes: scFv-hIgG1 Fc; not shown: human IgG1 Fc

— EP4725969A1 (Latticon (Suzhou) Biopharmaceuticals Co., Ltd., dated 2024)
